According to PMC9061850, “Structural basis for the inhibition of IAPP fibril formation by the co-chaperonin prefoldin” (Nature Communications, 2022):
Positions of bridges follow the written chain, without caps; N, C: chain ends. No end group written: not given here. *: point of attachment. Biotin = O=C1N[C@H]2[C@H](CS[C@H]2CCCCC(=O)*)N1; βAla = NCCC(=O)O

How the values were obtained:
[1] = target: T1, Prefoldin from Pyrococcus horikoshii (PhPFD, α2β4 heterohexamer, 86.4 kDa) (Pyrococcus horikoshii, UniProt O58263 1-148; O58268 1-117, S98G); test: BLI; biotinylated monomeric IAPP immobilised on Super Streptavidin biosensors, quenched with biotin; PhPFD 0.5 µM to 150 µM in solution; room temperature; 50 mM MES/NaOH (pH 6.5), 25 mM MgCl2; steady state analysis; settings: both partners purified
T1 construct: Prefoldin α-subunit, Pyrococcus horikoshii, with the point mutation S98G; Prefoldin β-subunit, Pyrococcus horikoshii; Used unlabelled (NMR titration, BLI, EM, ThT assays) and, for the PRE experiments, highly deuterated with 15N or 13CH3 labels on either the α- or the β-subunit; also called archaeal prefoldin; source: E. coli BL21 (DE3), α- and β-subunit from separate pET23c plasmids, purified …
T1 sequence 1: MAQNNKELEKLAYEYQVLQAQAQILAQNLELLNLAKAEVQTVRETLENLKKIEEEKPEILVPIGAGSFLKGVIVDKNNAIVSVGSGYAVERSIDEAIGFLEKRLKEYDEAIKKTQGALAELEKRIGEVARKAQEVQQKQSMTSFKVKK
T1 sequence 2: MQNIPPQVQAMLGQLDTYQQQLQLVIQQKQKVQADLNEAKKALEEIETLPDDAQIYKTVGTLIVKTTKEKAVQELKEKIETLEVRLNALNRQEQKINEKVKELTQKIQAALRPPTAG

[2] = target: T1, Prefoldin from Pyrococcus horikoshii …; test: NMR titration; unlabeled PhPFD added to 29 µM U-[15N]-IAPP, ratios 1:0 to 1:8; 2D 15N-SOFAST-HMQC at 30 °C; 25 mM MES/NaOH (pH 6.5), 25 mM MgCl2; TITAN global lineshape fitting, two-state model assuming 1:1 stoichiometry; apparent; settings: both partners purified

B1: biotinylated IAPP (biotinyl-[β-Ala]-[β-Ala]-IAPP-NH2), monomeric (peptide)
peptide: {Biotin-βAla-βAla}-KCNTATCATQRLANFLVHSSNNFGAILSSTNVGSNTY-NH2
modifications: disulfide 2-7
SMILES: CC[C@H](C)[C@H](NC(=O)[C@H](C)NC(=O)CNC(=O)[C@H](Cc1ccccc1)NC(=O)[C@H](CC(N)=O)NC(=O)[C@H](CC(N)=O)NC(=O)[C@H](CO)NC(=O)[C@H](CO)NC(=O)[C@H](Cc1c[nH]cn1)NC(=O)[C@@H](NC(=O)[C@H](CC(C)C)NC(=O)[C@H](Cc1ccccc1)NC(=O)[C@H](CC(N)=O)NC(=O)[C@H](C)NC(=O)[C@H](CC(C)C)NC(=O)[C@H](CCCNC(=N)N)NC(=O)[C@H](CCC(N)=O)NC(=O)[C@@H](NC(=O)[C@H](C)NC(=O)[C@@H]1CSSC[C@H](NC(=O)[C@H](CCCCN)NC(=O)CCNC(=O)CCNC(=O)CCCC[C@@H]2SC[C@@H]3NC(=O)N[C@@H]32)C(=O)N[C@@H](CC(N)=O)C(=O)N[C@@H]([C@@H](C)O)C(=O)N[C@@H](C)C(=O)N[C@@H]([C@@H](C)O)C(=O)N1)[C@@H](C)O)C(C)C)C(=O)N[C@@H](CC(C)C)C(=O)N[C@@H](CO)C(=O)N[C@@H](CO)C(=O)N[C@H](C(=O)N[C@@H](CC(N)=O)C(=O)N[C@H](C(=O)NCC(=O)N[C@@H](CO)C(=O)N[C@@H](CC(N)=O)C(=O)N[C@H](C(=O)N[C@@H](Cc1ccc(O)cc1)C(N)=O)[C@@H](C)O)C(C)C)[C@@H](C)O
notes: Human islet amyloid polypeptide (IAPP, amylin), 37 residues; numbers count on: the mature protein; Molecular mass 4271.9 Da, purity 99.2%; also called monomeric biotinylated IAPP; source: synthetic peptide (custom synthesized, Pepscan, Lelystad); not shown: biotin, N-terminal, kept
Kd [1]: 11 ± 1.2 µM

B2: U-[15N]-labeled recombinant human IAPP (non-amidated), monomeric (peptide)
peptide: KCNTATCATQRLANFLVHSSNNFGAILSSTNVGSNTY-OH
modifications: ends and bridges not checked; also: U-[15N] isotope label
notes: Human islet amyloid polypeptide (IAPP, amylin); numbers count on: the mature protein; also called U-[15N]-IAPP; monomeric IAPP; source: preparative RP-HPLC as final step
Kd [2]: 61 µM
koff [2]: ~6000 s⁻¹
